Several values for one entry are separate records, joined by “and”; a condition that tells them apart may be missing. Identical values can stand only once.
Experiments:
[1] = pH of peptide solution before and after irradiation; assay type: physicochemical
Method: (§1) Samples were irradiated with gamma rays at 23, 25, 28 and 40 kGy with VPTrad Gammacell 220® High Dose Rate Co-60 Irradiator. In some embodiments, the run dose rate and duration time for 40 kGy irradiation were 6.30 kGy/hr and 6 hours 20 minutes 58 seconds, respectively. In other embodiments, the run dose rate and duration time for 28 kGy irradiation were 4.40 kGy/hr and 6 hours 22 minutes 31 seconds, respectively. In other embodiments, the run dose rate and duration time for 25 kGy irradiation were 6.58 kGy/hr and 3 hours 47 minutes 42 seconds, respectively. In other embodiments, the run dose rate and duration time for 23 kGy irradiation were 6.58 kGy/hr and 3 hours 29 minutes 29 seconds, respectively.
(§2) In other embodiments, samples were irradiated with X-ray at 25 kGy and 40 kGy with a Mevex accelerator (10 MeV, 20 kW).
(§3) In other embodiments, samples were irradiated with e-beam at 25 and 40 kGy with a Mevex accelerator (10 MeV, 20 kW).
(§4) Methods and test results: The appearance of PuraStat® was observed after each test. The pH of PuraStat® was tested using an Accumet AB15 pH meter (Fisher Scientific). HPLC tests were performed to evaluate the major peptide content after irradiation tests. Agilent HPLC 1100 (Agilent Technologies) was used for this study. Column temperature was kept at 25° C.

[2] = Mass spectrometry test for degradation of the peptides; assay type: physicochemical
Method: (§5) Mass spectrometry tests were carried out to investigate the degradation of the peptides after irradiation sterilization. An Agilent LC/MSD ion trap mass spectrometer was used for this study. The sample solutions were prepared as described above for the HPLC samples. Each sample was injected at 9 μL/min with a syringe pump. Each mass spectrum was recorded for 1 minute.
as §5, with “sterilization.” for “sterilization. An”, “Mass” for “Each mass”, “minute. The molecular weight of PuraStat® (Ac-(RADA)4-NH2) (SEQ ID NO:1) is 1712, which matches its calculated molecular weight from the major three peaks at m/3=572, m/2=857, and m=1713 in all the spectra of control and irradiated PuraStat® samples.” for “minute.”

[3] = Appearance of peptide solution before and after irradiation; assay type: physicochemical; settings: for appearance and pH, summary: after gamma, X-ray and e-beam irradiation at around 25~40 kGy
Method: as §1, §2, §3, §4

[4] = HPLC test for major peptide content; assay type: physicochemical; settings: N = 3, mean ± SD
Method: HPLC tests were performed to evaluate the major peptide content after irradiation tests. An Agilent HPLC 1100 (Agilent Technologies) was used for this study. The column temperature was kept at 25° C.
For RADA16 (SEQ ID NO:1) samples, solvent A was water with 0.1% TFA and solvent B was 80% acetonitrile with 0.1% TFA. Gradient of solvent B was controlled from 10% to 40% in 20 min and 40% for another 5 min at 25° C. Agilent Zorbax 300SB-C18 column (4.6 mm×250 mm, 5 μm, 300 Å) was used for this test. PuraStat® (RADA16 (SEQ ID NO:1) 2.5%) (40 mg) was mixed with 10 μL of DH2O and the mixture was vortexed. The mixture was further mixed with 500 μL of formic acid and vortexed. This mixture was then mixed with DH2O (4,450 μL) and vortexed. 20 μL samples were injected using an Agilent autosampler.
For IEIK13 (SEQ ID NO:3) samples, solvent A was water with 0.1% TFA and solvent B was 90% Acetonitrile with 0.1% TFA. The gradient of solvent B was controlled from 20% to 43% in 8 min, from 43% to 70% between 8 and 9.5 min, and from 70% to 95% between 9.5 and 30 min, and 95% for another 5 min at 25° C. An Agilent PLRP-S column (4.6 mm×250 mm, 8 μm, 300 Å) was used for this test. A 1.3% solution of IEIK13 (SEQ ID NO:3) was diluted with water with 0.1% TFA to 0.075% and the mixture was vortexed. 35 μL samples were injected using an Agilent autosampler.
For QLEL12 (SEQ ID NO:4) samples, solvent A was water and solvent B was 80% acetonitrile. The gradient of solvent B was controlled from 20% to 80% in 15 min and 80% for another 7 min at 25° C. An Agilent PLRP-S column (4.6 mm×250 mm, 8 μm, 300 Å) was used for this test. 0.15% w/v of QLEL12 (SEQ ID NO:4) solution was diluted to 0.01% with DH2O and vortexed. 50 μL samples were injected using an Agilent autosampler.
as §4
Solvent A was water with 0.1% TFA and solvent B was 80% Acetonitrile with 0.1% TFA. Gradient of solvent B was controlled from 10% to 40% in 20 min and 40% for another 5 min at 25° C. Agilent Zorbax 300SB-C18 column (4.6 mm×250 mm, 5 μm, 300 Å) was used for this test. PuraStat® (RADA16 (SEQ ID NO:1) 2.5%) (40 mg) were mixed with 10 μL of DH2O and 500 μL of formic acid and vortexed. And the mixture was mixed with DH2O (4,450 μL) and vortexed. 20 μL of samples were injected using an Agilent autosampler.
Agilent HPLC 1100 (Agilent Technologies) was used for this study. Column temperature was kept at 25° C. Agilent Zorbax 300SB-C18 column (4.6 mm×250 mm, […], 300 Å) was used for this test. Solvent A was water with 0.1% TFA and solvent B was 80% Acetonitrile with 0.1% TFA. Gradient of solvent B was controlled from 10% to 40% in 20 min and 40% for another 5 min at 25° C. PuraStat® (40 mg) was mixed with 10 μL of DH2O and 500 μL of formic acid and vortexed, and the mixture was mixed with DH2O (4,450 μL) and vortexed. […] of samples were injected using an Agilent autosampler.

[5] = RADA16 in solution; cited from earlier work
[6] = after gamma, X-ray or e-beam irradiation

| Substance | pH ([1]; X-ray irradiation at 25 kGy) | pH ([1]; X-ray irradiation at 40 kGy) | pH ([1]; control, not irradiated) | pH ([1]; e-beam irradiation at 25 kGy) | pH ([1]; e-beam irradiation at 40 kGy) | pH ([1]; gamma irradiation at 40 kGy) | degradation by mass spectrometry analysis [2, 6] | Appearance ([3]; X-ray irradiation at 25 kGy) | Appearance ([3]; X-ray irradiation at 40 kGy) | appearance and pH, summary [3] | Appearance ([3]; control, not irradiated) | Appearance ([3]; e-beam irradiation at 25 kGy) | Appearance ([3]; e-beam irradiation at 40 kGy) | Appearance ([3]; gamma irradiation at 40 kGy) | Major peptide content (%) ([4]; X-ray irradiation at 25 kGy) | Major peptide content (%) ([4]; X-ray irradiation at 40 kGy) | Major peptide content (%) ([4]; control, not irradiated) | Major peptide content (%) ([4]; e-beam irradiation at 25 kGy) | Major peptide content (%) ([4]; e-beam irradiation at 40 kGy) | Major peptide content (%) ([4]; gamma irradiation at 40 kGy) | also measured |
| --- | --- | --- | --- | --- | --- | --- | --- | --- | --- | --- | --- | --- | --- | --- | --- | --- | --- | --- | --- | --- | --- |
| Ac-IEIKIEIKIEIKI-NH2 [IEIK13] | 3.0 | 3.0 | 3.0 | 3.0 | 3.0 | 3.0 | only insubstantially degraded | Clear and viscous | Clear and viscous | remained unchanged | Clear and viscous | Clear and viscous | Clear and viscous | Clear and viscous | 99.8% and 99.8 ± 0.1% | 99.9% and 99.9 ± 0.1% | 99.6% and 99.6 ± 0.0% | 99.6% and 99.6 ± 0.2% | 99.8% and 99.8 ± 0.1% | 99.8% and 99.8 ± 0.2% | pH ([1]; gamma irradiation at 28 kGy): 3.0; Appearance ([3]; gamma irradiation at 28 kGy): Clear and viscous |
| Ac-KLDLKLDLKLDL-NH2 [KLD12, self-assembling peptide] | 2.2 | 2.2 | 2.2 | 2.2 | 2.2 | 2.2 | – | Clear and viscous | Clear and viscous | remained unchanged | Clear and viscous | Clear and viscous | Clear and viscous | Clear and viscous | – | – | – | – | – | – | – |
| Ac-QLELQLELQLEL-NH2 [QLEL12, self-assembling peptide, degraded by irradiation] | 6.3 | 5.9 | 7.0 | 6.6 | 6.5 | 5.9 | significantly degraded | Clear and watery | Clear and watery | – | Clear and viscous | Clear and watery | Clear and watery | Clear and watery | 57.0% and 57.0 ± 4.9 % | 47.3% and 47.3 ± 1.3 % | 90.5% and 90.5 ± 1.3% | 51.9% and 51.9 ± 7.3 % | 55.6% and 55.6 ± 3.0 % | 40.7% and 40.7 ± 3.1 % | pH ([1]; gamma irradiation at 23 kGy): 6.7; pH ([1]; gamma irradiation at 25 kGy): 6.5; Appearance ([3]; gamma irradiation at 23 kGy): Clear and watery; Appearance ([3]; gamma irradiation at 25 kGy): Clear and watery |
| Ac-RADARADARADARADA-NH2 [RADA16] | – | – | – | – | – | – | not degraded | – | – | remained unchanged | – | – | – | – | 73.8% | 71.9% | 78.3% | 76.0% | 70.0% | 69.7% | degradation on autoclaving [5]: complete thermal degradation; degradation by mass spectrometry analysis ([2]; autoclave treatment (121° C. for 20 min)): completely degraded; Major peptide content (%) ([4]; gamma irradiation at 23 kGy): 75.5%; Major peptide content (%) ([4]; gamma irradiation at 25 kGy): 74.6%; Major peptide content (%) ([4]; gamma irradiation at 28 kGy): 68.5% |

Source: patent US11534528B2, “Sterilization of self-assembling peptides by irradiation” (3-D Matrix, Ltd., priority 2020, dated 2022)
